Results on 15 molecules are retold here after patent publication US20160159924A1 (Novo Nordisk, published 2016).

As a reminder, the Kd is the free concentration of one partner at which half of the binding sites on the other are occupied at equilibrium, for simple one-to-one binding.

B1: rec0266-0000-0010-VH_D95A (antibody, mouse IgG1, V domains shown)
VH: DVKLVESGGGLVKPGGSLKLSCVASGFTFSSYTMSWVRQTPEKRLEWVATISGGGSHIYYADSVKGRFTISRDNAKNTLYLQMSSLKSEDTAIYYCTRAGRDGSWFAYWGQGTLVTVSA
VL: DIVMTQSPATLSVTPGDRVSLSCRTSQSIGDYLHWYQQKSHESPRLLIKYVSQSISGIPSRFSGSGSGSDFTLSINSVESEDVGVYYCQNSHSFPLTFGSGTKLELKR
B2: rec0266-0000-0010-VH_D95S (antibody, mouse IgG1, V domains shown)
VH: DVKLVESGGGLVKPGGSLKLSCVASGFTFSSYTMSWVRQTPEKRLEWVATISGGGSHIYYADSVKGRFTISRDNAKNTLYLQMSSLKSEDTAIYYCTRSGRDGSWFAYWGQGTLVTVSA
VL: DIVMTQSPATLSVTPGDRVSLSCRTSQSIGDYLHWYQQKSHESPRLLIKYVSQSISGIPSRFSGSGSGSDFTLSINSVESEDVGVYYCQNSHSFPLTFGSGTKLELKR
B3: rec0266-0000-0010-VH_D95V (antibody, mouse IgG1, V domains shown)
VH: DVKLVESGGGLVKPGGSLKLSCVASGFTFSSYTMSWVRQTPEKRLEWVATISGGGSHIYYADSVKGRFTISRDNAKNTLYLQMSSLKSEDTAIYYCTRVGRDGSWFAYWGQGTLVTVSA
VL: DIVMTQSPATLSVTPGDRVSLSCRTSQSIGDYLHWYQQKSHESPRLLIKYVSQSISGIPSRFSGSGSGSDFTLSINSVESEDVGVYYCQNSHSFPLTFGSGTKLELKR
B4: rec0266-0000-0010-VH_D95T (antibody, mouse IgG1, V domains shown)
VH: DVKLVESGGGLVKPGGSLKLSCVASGFTFSSYTMSWVRQTPEKRLEWVATISGGGSHIYYADSVKGRFTISRDNAKNTLYLQMSSLKSEDTAIYYCTRTGRDGSWFAYWGQGTLVTVSA
VL: DIVMTQSPATLSVTPGDRVSLSCRTSQSIGDYLHWYQQKSHESPRLLIKYVSQSISGIPSRFSGSGSGSDFTLSINSVESEDVGVYYCQNSHSFPLTFGSGTKLELKR
B5: rec0266-0000-0010-VH_D95P (antibody, mouse IgG1, V domains shown)
VH: DVKLVESGGGLVKPGGSLKLSCVASGFTFSSYTMSWVRQTPEKRLEWVATISGGGSHIYYADSVKGRFTISRDNAKNTLYLQMSSLKSEDTAIYYCTRPGRDGSWFAYWGQGTLVTVSA
VL: DIVMTQSPATLSVTPGDRVSLSCRTSQSIGDYLHWYQQKSHESPRLLIKYVSQSISGIPSRFSGSGSGSDFTLSINSVESEDVGVYYCQNSHSFPLTFGSGTKLELKR
B6: rec0266-0000-0010-VH_D95E (antibody, mouse IgG1, V domains shown)
VH: DVKLVESGGGLVKPGGSLKLSCVASGFTFSSYTMSWVRQTPEKRLEWVATISGGGSHIYYADSVKGRFTISRDNAKNTLYLQMSSLKSEDTAIYYCTREGRDGSWFAYWGQGTLVTVSA
VL: DIVMTQSPATLSVTPGDRVSLSCRTSQSIGDYLHWYQQKSHESPRLLIKYVSQSISGIPSRFSGSGSGSDFTLSINSVESEDVGVYYCQNSHSFPLTFGSGTKLELKR
B7: rec0266-0000-0010-VH_D95I (antibody, mouse IgG1, V domains shown)
VH: DVKLVESGGGLVKPGGSLKLSCVASGFTFSSYTMSWVRQTPEKRLEWVATISGGGSHIYYADSVKGRFTISRDNAKNTLYLQMSSLKSEDTAIYYCTRIGRDGSWFAYWGQGTLVTVSA
VL: DIVMTQSPATLSVTPGDRVSLSCRTSQSIGDYLHWYQQKSHESPRLLIKYVSQSISGIPSRFSGSGSGSDFTLSINSVESEDVGVYYCQNSHSFPLTFGSGTKLELKR
B8: rec0266-0000-0010-VH_D95L (antibody, mouse IgG1, V domains shown)
VH: DVKLVESGGGLVKPGGSLKLSCVASGFTFSSYTMSWVRQTPEKRLEWVATISGGGSHIYYADSVKGRFTISRDNAKNTLYLQMSSLKSEDTAIYYCTRLGRDGSWFAYWGQGTLVTVSA
VL: DIVMTQSPATLSVTPGDRVSLSCRTSQSIGDYLHWYQQKSHESPRLLIKYVSQSISGIPSRFSGSGSGSDFTLSINSVESEDVGVYYCQNSHSFPLTFGSGTKLELKR
B9: rec0266-0000-0010-VH_D95H (antibody, mouse IgG1, V domains shown)
VH: DVKLVESGGGLVKPGGSLKLSCVASGFTFSSYTMSWVRQTPEKRLEWVATISGGGSHIYYADSVKGRFTISRDNAKNTLYLQMSSLKSEDTAIYYCTRHGRDGSWFAYWGQGTLVTVSA
VL: DIVMTQSPATLSVTPGDRVSLSCRTSQSIGDYLHWYQQKSHESPRLLIKYVSQSISGIPSRFSGSGSGSDFTLSINSVESEDVGVYYCQNSHSFPLTFGSGTKLELKR
B10: rec0266-0000-0010-VH_D95K (antibody, mouse IgG1, V domains shown)
VH: DVKLVESGGGLVKPGGSLKLSCVASGFTFSSYTMSWVRQTPEKRLEWVATISGGGSHIYYADSVKGRFTISRDNAKNTLYLQMSSLKSEDTAIYYCTRKGRDGSWFAYWGQGTLVTVSA
VL: DIVMTQSPATLSVTPGDRVSLSCRTSQSIGDYLHWYQQKSHESPRLLIKYVSQSISGIPSRFSGSGSGSDFTLSINSVESEDVGVYYCQNSHSFPLTFGSGTKLELKR
B11: rec0266-0000-0010-VH_D95R (antibody, mouse IgG1, V domains shown)
VH: DVKLVESGGGLVKPGGSLKLSCVASGFTFSSYTMSWVRQTPEKRLEWVATISGGGSHIYYADSVKGRFTISRDNAKNTLYLQMSSLKSEDTAIYYCTRRGRDGSWFAYWGQGTLVTVSA
VL: DIVMTQSPATLSVTPGDRVSLSCRTSQSIGDYLHWYQQKSHESPRLLIKYVSQSISGIPSRFSGSGSGSDFTLSINSVESEDVGVYYCQNSHSFPLTFGSGTKLELKR
B12: rec0266-0000-0010-VH_D95Y (antibody, mouse IgG1, V domains shown)
VH: DVKLVESGGGLVKPGGSLKLSCVASGFTFSSYTMSWVRQTPEKRLEWVATISGGGSHIYYADSVKGRFTISRDNAKNTLYLQMSSLKSEDTAIYYCTRYGRDGSWFAYWGQGTLVTVSA
VL: DIVMTQSPATLSVTPGDRVSLSCRTSQSIGDYLHWYQQKSHESPRLLIKYVSQSISGIPSRFSGSGSGSDFTLSINSVESEDVGVYYCQNSHSFPLTFGSGTKLELKR
B13: rec0266-0000-0010-VH_D98A (antibody, mouse IgG1, V domains shown)
VH: DVKLVESGGGLVKPGGSLKLSCVASGFTFSSYTMSWVRQTPEKRLEWVATISGGGSHIYYADSVKGRFTISRDNAKNTLYLQMSSLKSEDTAIYYCTRDGRAGSWFAYWGQGTLVTVSA
VL: DIVMTQSPATLSVTPGDRVSLSCRTSQSIGDYLHWYQQKSHESPRLLIKYVSQSISGIPSRFSGSGSGSDFTLSINSVESEDVGVYYCQNSHSFPLTFGSGTKLELKR
B14: rec0266-0000-0010-VH_D95F (antibody, mouse IgG1, V domains shown)
VH: DVKLVESGGGLVKPGGSLKLSCVASGFTFSSYTMSWVRQTPEKRLEWVATISGGGSHIYYADSVKGRFTISRDNAKNTLYLQMSSLKSEDTAIYYCTRFGRDGSWFAYWGQGTLVTVSA
VL: DIVMTQSPATLSVTPGDRVSLSCRTSQSIGDYLHWYQQKSHESPRLLIKYVSQSISGIPSRFSGSGSGSDFTLSINSVESEDVGVYYCQNSHSFPLTFGSGTKLELKR
B15: rec0266-0000-0010-VH_D95G (antibody, mouse IgG1, V domains shown)
VH: DVKLVESGGGLVKPGGSLKLSCVASGFTFSSYTMSWVRQTPEKRLEWVATISGGGSHIYYADSVKGRFTISRDNAKNTLYLQMSSLKSEDTAIYYCTRGGRDGSWFAYWGQGTLVTVSA
VL: DIVMTQSPATLSVTPGDRVSLSCRTSQSIGDYLHWYQQKSHESPRLLIKYVSQSISGIPSRFSGSGSGSDFTLSINSVESEDVGVYYCQNSHSFPLTFGSGTKLELKR

This assay concerns the target T1, recombinant human sc-uPA (human, UniProt P00749 21-431).
T1 construct: 411 amino acid single-chain zymogen expressed in HEK293; the 20-residue signal peptide is not present in the mature protein; also called human single-chain uPA; pro-uPA
Description: SPR, mAb immobilised. The method, then: The binding affinity to recombinant human sc-uPA protein (SEQ ID NO:1) was measured by surface plasmon resonance (SPR).
The experiments were performed on a Biacore™ instrument (GE Healthcare) and analysed with the BIAcore 4000 Evaluation Software. Anti-human uPA mAb variants were directly immobilized at 150-600 RU on flow cells of a CM5 sensor chip (GE Healthcare; cat. # BR-1000-12) via amine coupling, respectively. Recombinant human sc-uPA was diluted in HBS-N (GE Healthcare Cat BR-1006-70) with 1% BSA buffer with a dilution factor 3× ranging 1000-0.13 nM. Recombinant human sc-uPA was injected for 60 s, followed by a 600 s dissociation phase. Binding curves were measured at 25° C. with a flow rate of 30 μL/min. Regeneration of the chip surface was performed with pH1.5 Glycine for 25 s at 30 μl/min. Determination of the kinetic parameters was performed by fitting with a 1:1 binding model. Binding affinities were calculated and are stated in Table 17 below.
(In general: SPR reads the build-up and loss of mass on a sensor chip optically.)
Take B1: the dissociation constant Kd turned out to be 2.6 nM.
In the case of B2 it was 4 nM.
For B3, the equilibrium dissociation constant (Kd) came out at 0.8 nM.
As to B4, the Kd was determined as 1.5 nM.
Take B5: the Kd was 2.7 nM.
With B6, the Kd was 2 nM.
Take B7: the dissociation constant (Kd) amounted to 1.4 nM.
In the case of B8 it was 4.7 nM; in that of B9, 6.5 nM.
The figure for B10 is 12 nM; for B11 it is 1.3 nM.
The figure for B12 is 5 nM.
For B13, the Kd amounted to 0.95 nM.
In the case of B14 it was 12 nM; in that of B15, 12 nM.
